Assay [1] addresses T1, recombinant human CDH17 (R&D systems) (human, UniProt Q12864 23-787).
T1 construct: Bought recombinant protein coated on the ELISA plate; also called human Cadherin-17
T1 sequence: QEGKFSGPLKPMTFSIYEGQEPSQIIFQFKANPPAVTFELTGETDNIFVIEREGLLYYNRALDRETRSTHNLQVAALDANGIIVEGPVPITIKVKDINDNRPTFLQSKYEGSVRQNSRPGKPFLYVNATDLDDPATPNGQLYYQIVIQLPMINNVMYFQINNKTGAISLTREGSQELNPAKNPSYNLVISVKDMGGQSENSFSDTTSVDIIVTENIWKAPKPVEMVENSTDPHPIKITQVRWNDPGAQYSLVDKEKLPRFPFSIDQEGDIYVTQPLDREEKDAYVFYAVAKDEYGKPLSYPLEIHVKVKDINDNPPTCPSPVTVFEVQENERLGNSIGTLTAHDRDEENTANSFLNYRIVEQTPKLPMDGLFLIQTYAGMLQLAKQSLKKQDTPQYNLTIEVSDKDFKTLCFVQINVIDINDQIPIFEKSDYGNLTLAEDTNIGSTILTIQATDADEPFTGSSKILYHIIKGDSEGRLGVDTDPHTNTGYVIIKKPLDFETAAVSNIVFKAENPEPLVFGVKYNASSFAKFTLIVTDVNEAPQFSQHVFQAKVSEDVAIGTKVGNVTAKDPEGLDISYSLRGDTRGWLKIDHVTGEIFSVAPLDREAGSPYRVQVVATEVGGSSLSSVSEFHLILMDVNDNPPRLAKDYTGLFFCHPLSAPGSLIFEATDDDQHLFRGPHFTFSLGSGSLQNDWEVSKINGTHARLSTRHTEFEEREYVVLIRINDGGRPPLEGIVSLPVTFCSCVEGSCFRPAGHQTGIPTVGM
Kind of assay: ELISA, recombinant human CDH17. As for the experimental part:
(§1) ELISA-based binding assay was employed to evaluate the binding to CDH17 by anti-CDH17 antibodies. In this assay, 100 μL of […] recombinant human CDH17 (R&D systems) was coated on an ELISA plate. Increasing concentrations of masked and reference mAbs were applied on the plate and their binding to the recombinant human proteins were detected by HRP-conjugated anti-human secondary antibody. […] The expressed anti-CDH17 mAbs had potent binding to CDH17. The anti-CDH17 were tested for binding to AGS gastric cancer cells and AsPC-1 pancreatic cancer cells.
Background: An ELISA detects its analyte on a solid surface through an enzyme-linked reagent.

Assay [2] addresses T2, human CDH17 on AGS gastric cancer cells and AsPC-1 pancreatic cancer cells (human, UniProt Q12864 23-832).
T2 construct: Native CDH17 on the surface of cancer cell lines; also called CDH17 expressing AGS cells; CDH17 expressing AsPC-1 pancreatic cancer cells
T2 sequence: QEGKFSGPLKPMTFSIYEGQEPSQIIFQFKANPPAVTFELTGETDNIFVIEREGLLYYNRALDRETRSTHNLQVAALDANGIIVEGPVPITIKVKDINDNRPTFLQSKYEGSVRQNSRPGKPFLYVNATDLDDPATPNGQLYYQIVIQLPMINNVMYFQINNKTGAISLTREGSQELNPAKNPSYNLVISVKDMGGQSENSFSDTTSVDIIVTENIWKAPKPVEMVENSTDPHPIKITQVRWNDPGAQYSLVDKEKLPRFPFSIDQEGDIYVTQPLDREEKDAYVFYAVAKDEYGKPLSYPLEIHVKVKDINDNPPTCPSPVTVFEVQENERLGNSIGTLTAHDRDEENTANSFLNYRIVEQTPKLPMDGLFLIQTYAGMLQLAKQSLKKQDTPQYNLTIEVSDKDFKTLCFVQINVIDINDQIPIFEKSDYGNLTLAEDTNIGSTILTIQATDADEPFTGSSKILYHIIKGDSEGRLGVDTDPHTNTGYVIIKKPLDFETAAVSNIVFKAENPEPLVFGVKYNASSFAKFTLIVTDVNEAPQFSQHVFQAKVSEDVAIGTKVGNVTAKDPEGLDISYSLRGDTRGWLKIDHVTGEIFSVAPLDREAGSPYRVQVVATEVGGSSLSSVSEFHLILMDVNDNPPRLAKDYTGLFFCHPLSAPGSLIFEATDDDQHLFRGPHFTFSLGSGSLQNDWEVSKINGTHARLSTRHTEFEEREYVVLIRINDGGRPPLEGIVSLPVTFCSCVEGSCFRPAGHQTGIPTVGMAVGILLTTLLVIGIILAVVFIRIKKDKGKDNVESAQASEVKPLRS
The assay can be described thus: flow cytometry on AGS and AsPC-1 cells. In general terms: Flow cytometry measures light scatter and fluorescence of single cells or particles in a stream.

Assay [3] concerns the target T1, recombinant human CDH17 (R&D systems). The assay can be described thus: ELISA, plate coated with recombinant human CDH17. As for the experimental part: as §1

B1: VHO v358 (VHH)
VHH: EVQLLESGGGLVQPGGSLRLSCAASGFTFSDYWMSWVRQAPGKGLEWVSNISGDGGSTYYADSVKGRFTISRDNSKNTLYLQMNSLRAEDTAVYYCAKTTDLLQGAFDYWGQGTLVTVSS
notes: Variable-heavy-only (VHO) single domain; also called TS00358
As for B1, the binding result in assay [1] and in assay [2] was “binds” each time.

B2: VHO v364 (VHH)
VHH: EVQLLESGGGLVQPGGSLRLSCAASGFTFSDYWMSWVRQAPGKGLEWVSNISGSGGSTYYADSVKGRFTISRDNSKNTLYLQMNSLRAEDTAVYYCAKTSDWLLHDADLHFDYWGQGTLVTVSS
notes: Variable-heavy-only (VHO) single domain; also called TS00364; CDH17-VHO364
As to B2, the binding result in assay [1] and in assay [2] was “binds” in each case.

B3: VHO v363 (VHH)
VHH: EVQLLESGGGLVQPGGSLRLSCAASGFTFSTYWMSWVRQAPGKGLEWVSNISQDGGSTYYADSVKGRFTISRDNSKNTLYLQMNSLRAEDTAVYYCAKTTDWLQDKVDEAFDYWGQGTLVTVSS
notes: Variable-heavy-only (VHO) single domain; also called TS00363
Consider B3, for which the binding result in assay [1] and in assay [2] was “binds” each time.

B4: CDH17 v1 (antibody, human IgG1, V domains shown)
VH: EVQLQQSVAELVKPGASVKMSCKVSGYTLTDHTIHWMKQRPEQGLEWIGYIYPRDGITGYNEKFKGKATLTADTSSSTAYMQLNSLTSEDSAVYFCARWGYSYRNYAYYYDYWGQGTTLTVSS
VL: DIVMSQSPSSLAVSVGEKVTMSCKSSQSLLHSSNQKNYLAWYQQKPGQSPKVLIYWASTRESGVPDRFTGSGSGTDFTLTITSVKSEDLAVYYCQQYYSYPWTFGGGTRLEIK
notes: described as human IgG1 monoclonal antibody; also called anti-CDH17 v1
Regarding B4, the binding result in assay [3] is listed as “binds”.

B5: CDH17 v3 (antibody, V domains shown)
VH: QVQLQQSDAELVKPGASVKISCKVSGYTFTDHTIHWMKQRPEQGLEWIGYIYPRDVITQYNEKFKGKATLTADKSSSTAYMQLNSLTSEDSAVYLCARWGYFYGSRSYYFDYWGQGTTLTVSS
VL: DIVMSQSPSSLAVSVGEKVTMSCKSSQSLLHSSNQKNYLAWYQQKPGQSPKVLIYWASTRESGVPDRFTGSGSGTDFTLTITSVKSEDLAVYYCQQYYSYPWTFGGGTRLEIK
notes: typical human IgG heavy and light chain bands on SDS-PAGE
Take B5: in assay [3], the binding result is on record as “binds”.

B6: CDH17 v2 (antibody, human IgG1, V domains shown)
VH: QVQLVQSGAEVKKPGSSVKVSCKVSGYTFTDHTIHWMKQRPGQGLEWIGYIYPRDVITQYNEKFKGKVTLTADKSTSTAYMELSSLRSEDTAVYLCARWGYFYGSRSYYFDYWGQGTTVTVSS
VL: DIVMSQSPSSLAVSVGEKVTMSCKSSQSLLHSSNQKNYLAWYQQKPGQSPKVLIYWASTRESGVPDRFTGSGSGTDFTLTITSVKSEDLAVYYCQQYYSYPWTFGGGTRLEIK
notes: described as human IgG1 monoclonal antibody; also called anti-CDH17 v2
B6: the binding result in assay [3] is “binds”.

B7: CDH17 v4 (antibody, V domains shown)
VH: EVQLQQSVAELVKPGASVKMSCKVSGYTLTDHTIHWMKQRPEQGLEWIGYIYPRDGITGYNEKFKGKATLTADTSSSTAYMQLNSLTSEDSAVYFCARWGYSYRNYAYYYDYWGQGTTLTVSS
VL: DIVMTQSQKFMSTTVGDRVNITCKASQNVGTAVAWYQQKPGQSPKLLIYSASNRYTGVPDRFTGSGSGTDFTLTITNMQSKDLADYFCQQYSSYPWTFGGGTKLEIK
notes: as for B5
For the molecule B7, the binding result in assay [3] was “binds”.

B8: CDH17 v5 (antibody, V domains shown)
VH: QVQLVQSGAEVKKPGSSVKVSCKVSGYTFTDHTIHWMKQRPGQGLEWIGYIYPRDVITQYNEKFKGKVTLTADKSTSTAYMELSSLRSEDTAVYLCARWGYFYGSRSYYFDYWGQGTTVTVSS
VL: DIVMTQSQKFMSTTVGDRVNITCKASQNVGTAVAWYQQKPGQSPKLLIYSASNRYTGVPDRFTGSGSGTDFTLTITNMQSKDLADYFCQQYSSYPWTFGGGTKLEIK
notes: as for B5
Take B8: the binding result in assay [3] is listed as “binds”.

B9: CDH17 v6 (antibody, V domains shown)
VH: QVQLQQSDAELVKPGASVKISCKVSGYTFTDHTIHWMKQRPEQGLEWIGYIYPRDVITQYNEKFKGKATLTADKSSSTAYMQLNSLTSEDSAVYLCARWGYFYGSRSYYFDYWGQGTTLTVSS
VL: DIVMTQSQKFMSTTVGDRVNITCKASQNVGTAVAWYQQKPGQSPKLLIYSASNRYTGVPDRFTGSGSGTDFTLTITNMQSKDLADYFCQQYSSYPWTFGGGTKLEIK
notes: as for B5
With B9, the binding result in assay [3] is “binds”.

B10: VHO v366 (VHH)
VHH: EVQLLESGGGLVQPGGSLRLSCAASGFTFSDYWMSWVRQAPGKGLEWVSNINGDGGSTYYADSVKGRFTISRDNSKNTLYLQMNSLRAEDTAVYYCAKTSTFYKQDKFDYWGQGTLVTVSS
notes: Variable-heavy-only (VHO) single domain; also called TS00366
For the molecule B10, the binding result in assay [1] and in assay [2] was “binds” each time.

Values taken from patent US20250270314A1 (TAVOTEK BIOTECH SUZHOU, published 2025).
